In patent US20260266848A1, “COMPOSITIONS AND METHODS FOR DIAGNOSING AND TREATING DYSTONIA” (Duke University, priority 2023, published 2026):

Experiments:
[1] = test system: DYT-TOR1A MEF EVs; assay: Quantitative LC-MS/MS proteomics of EVs from drug-treated DYT-TOR1A MEF cultures (ritonavir, salubrinal); assay type: cell-based, mouse; parameters: key to RTV Corrective Direction / RTV Corrective Direction, Grwd1 / RTV Corrective Direction, Srrm2 / RTV Corrective Direction, Rbm17 / RTV Corrective Direction, Dcaf8 / RTV Corrective Direction, Edil3 / RTV Corrective Direction, Timp3 / RTV Corrective Direction, Heatr3 / RTV Corrective Direction, Brd4 / RTV Corrective Direction, P3h4 / RTV Corrective Direction, Pacsin3 / RTV Corrective Direction, Naa50 / RTV Corrective Direction, Lpar6 / RTV Corrective Direction, Ndrg1 / RTV Corrective Direction, Kntc1 / RTV Corrective Direction, Cdk11b / RTV Corrective Direction, Sumo1 / RTV Corrective Direction, Lsm4 / RTV Corrective Direction, Hmga2 / RTV Corrective Direction, Cstf1 / RTV Corrective Direction, Tes / RTV Corrective Direction, Sbno1 / RTV Corrective Direction, Unc119b / RTV Corrective Direction, Cfdp1 / RTV Corrective Direction, Sec61b: YES = protein abundance effect opposite to DYT/WT; conditions: EV protein abundance; for RTV Corrective Direction: DYT + RTV (ritonavir) vs DYT, direction compared with DYT/WT; for DYT + RTV/DYT Cohen's d: ritonavir (RTV)-treated DYT vs DYT
[2] = test system: WT MEF EVs; assay: Quantitative LC-MS/MS proteomics of EVs from ISRIB-treated WT MEF cultures; assay type: cell-based, mouse; parameters: key to ISRIB and DYT Parallel Direction / ISRIB and DYT Parallel Direction, Ctdsp1 / ISRIB and DYT Parallel Direction, Pcdh19 / ISRIB and DYT Parallel Direction, Tspan7 / ISRIB and DYT Parallel Direction, Myo1e / ISRIB and DYT Parallel Direction, Plpp3 / ISRIB and DYT Parallel Direction, Sh3bp4 / ISRIB and DYT Parallel Direction, Dnajc7 / ISRIB and DYT Parallel Direction, Drg1 / ISRIB and DYT Parallel Direction, Maea: YES = protein abundance effect similar to DYT/WT; conditions: EV protein abundance; for WT + ISRIB/WT Cohen's d: ISRIB-treated WT vs WT; for ISRIB and DYT Parallel Direction: WT + ISRIB vs WT, direction compared with DYT/WT

Molecule | RTV Corrective Direction [1] | DYT + RTV/DYT Cohen's d [1] | WT + ISRIB/WT Cohen's d [2] | ISRIB and DYT Parallel Direction [2]
Nif3l1 (protein, UniProt Q9EQ80 1-376, looked up) NIF3-like protein 1: MLSSAHLVPTSVQRAQSWICRSSRSFMDLKALLSSLNDFASLSFAESWDNVGLLVEPSPPHTVNTLFLTNDLTEEVMDEALQKKADFILSYHPPIFRPMKHITWKTWKECLVIRALENRVAVYSPHTAYDAAPQGVNSWLAKGLGTCTTRPIHPSRAPDYPTEGAHRLEFSVNRSQDLDKVMSTLRGVGGVSVTSFPARCDGEEQTRISLNCTQKTLMQVLAFLSQDRQLYQKTEILSLEKPLLLHTGMGRLCTLDESVSLAIMIERIKTHLKLSHLRLALGVGRTLESQVKVVALCAGSGGSVLQGVEADLYLTGEMSHHDVLDAASKGINVILCEHSNTERGFLSELQEMLGVHFENKINIILSETDRDPLRVV | YES | 1.58 | −3.93 | YES
Aldh2 (protein, UniProt P47738 20-519, looked up) Aldehyde dehydrogenase, …: SAAATSAVPAPNHQPEVFCNQIFINNEWHDAVSRKTFPTVNPSTGEVICQVAEGNKEDVDKAVKAARAAFQLGSPWRRMDASDRGRLLYRLADLIERDRTYLAALETLDNGKPYVISYLVDLDMVLKCLRYYAGWADKYHGKTIPIDGDFFSYTRHEPVGVCGQIIPWNFPLLMQAWKLGPALATGNVVVMKVAEQTPLTALYVANLIKEAGFPPGVVNIVPGFGPTAGAAIASHEGVDKVAFTGSTEVGHLIQVAAGSSNLKRVTLELGGKSPNIIMSDADMDWAVEQAHFALFFNQGQCCCAGSRTFVQENVYDEFVERSVARAKSRVVGNPFDSRTEQGPQVDETQFKKILGYIKSGQQEGAKLLCGGGAAADRGYFIQPTVFGDVKDGMTIAKEEIFGPVMQILKFKTIEEVVGRANDSKYGLAAAVFTKDLDKANYLSQALQAGTVWINCYDVFGAQSPFGGYKMSGSGRELGEYGLQAYTEVKTVTVKVPQKNS | YES | 18.21 | −7.25 | YES
Steap3 (protein, UniProt Q8CI59 1-488, looked up) Metalloreductase STEAP3: MSGEMDKPLISRRLVDSDGSLAEVPKEAPKVGILGSGDFARSLATRLVGSGFSVVVGSRNPKRTAGLFPSLAQVTFQEEAVSSPEVIFVAVFREHYSSLCSLADQLAGKILVDVSNPTEKEHLQHRQSNAEYLASLFPACTVVKAFNVISAWALQAGPRDGNRQVLICSDQPEAKRTISEMARAMGFTPLDMGSLASAREVEAIPLRLLPSWKVPTLLALGLFVCFYTYNFIRDVLQPYIRKDENKFYKMPLSVVNTTLPCVAYVLLSLVYLPGVLAAALQLRRGTKYQRFPDWLDHWLQHRKQIGLLSFFFAMLHALYSFCLPLRRSHRYDLVNLAVKQVLANKSRLWVEEEVWRMEIYLSLGVLALGMLSLLAVTSLPSIANSLNWKEFSFVQSTLGFVALILSTMHTLTYGWTRAFEENHYKFYLPPTFTLTLLLPCVIILAKGLFLLPCLSRRLTKIRRGWEKDGAVKFMLPGDHTQGEKTSHV | YES | 1.81 | −3.91 | YES
Nectin2 (protein, UniProt Q92692 32-538, looked up) Nectin-2: QDVRVQVLPEVRGQLGGTVELPCHLLPPVPGLYISLVTWQRPDAPANHQNVAAFHPKMGPSFPSPKPGSERLSFVSAKQSTGQDTEAELQDATLALHGLTVEDEGNYTCEFATFPKGSVRGMTWLRVIAKPKNQAEAQKVTFSQDPTTVALCISKEGRPPARISWLSSLDWEAKETQVSGTLAGTVTVTSRFTLVPSGRADGVTVTCKVEHESFEEPALIPVTLSVRYPPEVSISGYDDNWYLGRTDATLSCDVRSNPEPTGYDWSTTSGTFPTSAVAQGSQLVIHAVDSLFNTTFVCTVTNAVGMGRAEQVIFVRETPNTAGAGATGGIIGGIIAAIIATAVAATGILICRQQRKEQTLQGAEEDEDLEGPPSYKPPTPKAKLEAQEMPSQLFTLGASEHSPLKTPYFDAGASCTEQEMPRYHELPTLEERSGPLHPGATSLGSPIPVPPGPPAVEDVSLDLEDEEGEEEEEYLDKINPIYDALSYSSPSDSYQGKGFVMSRAMYV | YES | 3.32 | −1.19 | YES
